Results taken from patent publication US20180369373A1 (INNATE PHARMA, published 2018).

Target: T1, human NKp46 (isoform a), expressed on cells (human, UniProt O76036 22-304)
T1 construct: also called huNKp46; Raji-huNKp46 Low
Assay: IHC on FFPE cell pellets (Raji transfectants, SNK6) and human spleens, antibody at 5 and 10 pg/ml as printed

T1 sequence (O76036 22-304 Q82K limits assumed): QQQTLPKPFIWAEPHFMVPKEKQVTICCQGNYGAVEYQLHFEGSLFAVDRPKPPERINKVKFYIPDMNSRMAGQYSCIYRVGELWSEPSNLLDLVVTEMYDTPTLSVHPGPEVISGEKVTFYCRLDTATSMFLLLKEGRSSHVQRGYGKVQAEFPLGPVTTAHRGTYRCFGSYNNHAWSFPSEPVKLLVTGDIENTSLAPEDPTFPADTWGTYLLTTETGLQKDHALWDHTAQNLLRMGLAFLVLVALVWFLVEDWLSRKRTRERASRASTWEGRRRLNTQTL

B1: 8E5B antibody (antibody, mouse IgG1, V domains shown)
VH: EIQLQQSGAELVKPGASVKLSCTASGFNIKDTYFHWVKQRPEQGLEWIGRIDPANGNTKYDPKFHDKATIIADISSNTAYLQFSSLTSEDTAVYYCAANRYGYWGQGTTLTVSS
VL: DIVMTQAAPSIPVTPGESVSISCRSSKSLLYINGNTHLFWFLQRPGQSPQLLIYRMSNLASGVPDRFSGSGSGTAFTLRISRVEAEDVGVYYCMQHLEYPFTFGSGTKLEIK
notes: Mouse monoclonal antibody; also called 8E5-B clone; monoclonal antibody 8E5B
**Q.** Does B1 bind?
**A.** binds
